Results from US20250250357A1 (NANJING ZAIMING PHARMACEUTICAL, published 2025).
Residue numbers refer to the chain shown, from its start.

B1: S009-F8-4.5 (antibody, human IgG1, kappa, V domains shown)
VH: QVQLQQPGAELVKPGASVKLSCKASGYTFTIYWMHWVKQRPGQGLEWIGMIHPNSGNTNYNEKFKSKATLTVDKSSSTAYMQLSSLTSEDSAVYYCSLIHWYFDVWGTGTTVTVSS
VL: QIVLTQSPAIMSASPGEKVTMTCSASSSVSYMYWYQQKPGSSPRLLIYDTSNLASGVPVRFSGSGSGTSYSLTISRMEAEDAATYYCQQWSSYPLTFGAGTKLELKR
notes: Human-murine chimeric antibody, human IgG1 heavy and kappa light constant regions
B2: S009-F8-5.15 (antibody, human IgG1, kappa, V domains shown)
VH: QVQLQQPGTELVKPGASVKLSCKASGYTFTSYWMHWVKQRPGQGLEWIGHSNPSNGGTNYNEKFKSKATLTVDKSSSTAYMQLSSLTSEDSAVYYCARWVRGSNYEYFDVWGTGTTVTVSS
VL: DIVMTQSQKFMSTTVGDRVSIICKASQNVGSAVAWCQQKPGQSPKLLIYSASNRYTGVPDRFTGSGSGTDFTLTISNMQSEDLADYFCQQYSSYPLTFAGGTKLEIKR
notes: as for B1
B3: S009-F8-7.5 (antibody, human IgG1, kappa, V domains shown)
VH: DVQLQESGPGLVKPSQSLSLTCSVTGYSITSGYYWNWIRQFPGNKLEWMAYIRYDGSNNYNPSLKNRISIIRDTSKNQFFLRLNSVTTEDTATYYCAKSYYGMDDWGQGISVTVSS
VL: DIQMTQSPASLSASVGETVTITCRTSGDIHNYLAWYQQKQGKSPQLLVYKAKTLENGVPSRFTGSGSGTQFSLKIDSLQPEDFGTYYCQHFWTTPYTFGGGTKLEIKR
notes: as for B1
B4: F7.44.20-H4 (scFv, not shown: small tags and cut ends)
scFv: EVQLVQSGAEVKKPGASVKVSCKASGYTFTDYNMDWVRQAPGQGLEWMGDINPSTGGTIYNQKFNGRVTMTEDKSTSTVYMELSSLRSEDTAVYYCARRRIGTGYFDVWGQGTTVTVSSGGGGSGGGGSGGGGSEIVLTQSPATLSLSPGERATLSCSASSSVISSYLSWYQQKPGSSPRLLIYRTSNLASGIPARFSGSGSGTDYTLTISSLEPEDFAVYYCHQWSSFPYTFGGGTKVEIK
notes: also called S009-F7.44.20 humanized antibody VH1 + VL4
B5: F7.44.20-H7 (scFv, not shown: small tags and cut ends)
scFv: B4 scFv with N65Q, S177Q
notes: also called S009-F7.44.20 humanized antibody VH1a + VL3
B6: F7.44.20-H8 (scFv, not shown: small tags and cut ends)
scFv: B4 scFv with N65Q
notes: also called S009-F7.44.20 humanized antibody VH1a + VL4
B7: F7.44.20-H11 (scFv, not shown: small tags and cut ends)
scFv: B4 scFv with T76A, S177Q
notes: also called S009-F7.44.20 humanized antibody VH2 + VL3
B8: F7.44.20-H12 (scFv, not shown: small tags and cut ends)
scFv: B4 scFv with T76A
notes: also called S009-F7.44.20 humanized antibody VH2 + VL4
B9: F7.44.20-H15 (scFv, not shown: small tags and cut ends)
scFv: B4 scFv with N65S, T76A, S177Q
notes: also called S009-F7.44.20 humanized antibody VH2a + VL3
B10: F7.44.20-H16 (scFv, not shown: small tags and cut ends)
scFv: B4 scFv with N65S, T76A
notes: also called S009-F7.44.20 humanized antibody VH2a + VL4
B11: F7.44.20 (scFv, not shown: small tags and cut ends)
scFv: EVQLQQSGPELVKPGASVKIPCKASGYTFTDYNMDWVKQSHGKSLEWIGDINPSTGGTIYNQKFNGKATLTEDKSASTVYMEFRSLTSDDTAVYYCARRRIGTGYFDVWGTGTTVTVSSGGGGSGGGGSGGGGSQIVLTQSPALMSASPGEKVTLTCSASSSVISSYLSWYQQKPGSSPKLLIYRTSNLASGVPARFSGSGSGTSYSLTISSMEAEDAASYFCHQWSSFPYTFGGGTKLEIK
notes: also called S009-F7.44.20 (parental variable regions, in the humanized-antibody ELISA)
B12: F7.44.20-VL-VH (scFv, not shown: small tags and cut ends)
scFv: QIVLTQSPALMSASPGEKVTLTCSASSSVISSYLSWYQQKPGSSPKLLIYRTSNLASGVPARFSGSGSGTSYSLTISSMEAEDAASYFCHQWSSFPYTFGGGTKLEIKGGGGSGGGGSGGGGSEVQLQQSGPELVKPGASVKIPCKASGYTFTDYNMDWVKQSHGKSLEWIGDINPSTGGTIYNQKFNGKATLTEDKSASTVYMEFRSLTSDDTAVYYCARRRIGTGYFDVWGTGTTVTVSS
notes: also called S009-F7.44.20 parental variable regions, VL-VH order

Columns and labels:
[1] = target: T1, human MSLN-FL-his protein (human, UniProt Q13421 296-580); assay: ELISA on coated antigen, antibody 100 nM
T1 construct: Made in HEK293E cells, purified on nickel column; it is put last here; also called human MSLN full-length protein; hMSLN-FL-his; not shown: His tag

[2] = target: T1, human MSLN-FL-his protein; assay: ELISA on coated antigen, antibody 10 nM
[3] = target: T1, human MSLN-FL-his protein; assay: ELISA on coated antigen, antibody 0.0001 nM
[4] = target: T1, human MSLN-FL-his protein; assay: ELISA on coated antigen, antibody 1 nM
[5] = target: T1, human MSLN-FL-his protein; assay: ELISA on coated antigen, no antibody (blank, column 'none')
[6] = target: T1, human MSLN-FL-his protein; assay: ELISA on coated antigen, antibody 0.001 nM
[7] = target: T1, human MSLN-FL-his protein; assay: ELISA on coated antigen, antibody 0.1 nM
[8] = target: T1, human MSLN-FL-his protein; assay: ELISA on coated antigen, antibody 0.01 nM
human MSLN-R3 protein [9] = target: T2, human MSLN-R3 protein (human, UniProt Q13421 487-598); assay: ELISA on coated antigen, antibody 0.01 nM
T2 construct: also called hMSLN-R3

human MSLN-R3 protein [10] = target: T2, human MSLN-R3 protein; assay: ELISA on coated antigen, antibody 10 nM
[11] = target: T3, human MSLN-hFc protein (Acro, Cat. No. MSN-H5253) (human, UniProt Q13421 296-580); assay: ELISA on coated antigen, antibody 0.0001 nM
T3 construct: the method names the coated protein as human MSLN-hFc (Acro); also called human MSLN full-length protein

human MSLN-R3 protein [12] = target: T2, human MSLN-R3 protein; assay: ELISA on coated antigen, antibody 1 nM
human MSLN-R3 protein [13] = target: T2, human MSLN-R3 protein; assay: ELISA on coated antigen, antibody 100 nM
[14] = target: T3, human MSLN-hFc protein (Acro, Cat. No. …); assay: ELISA on coated antigen, antibody 0.001 nM
human MSLN-R3 protein [15] = target: T2, human MSLN-R3 protein; assay: ELISA on coated antigen, antibody 0.1 nM
human MSLN-R3 protein [16] = target: T2, human MSLN-R3 protein; assay: ELISA on coated antigen, antibody 0.0001 nM
[17] = target: T3, human MSLN-hFc protein (Acro, Cat. No. …); assay: ELISA on coated antigen, antibody 0.1 nM
[18] = target: T3, human MSLN-hFc protein (Acro, Cat. No. …); assay: ELISA on coated antigen, antibody 100 nM
[19] = target: T3, human MSLN-hFc protein (Acro, Cat. No. …); assay: ELISA on coated antigen, antibody 10 nM
[20] = target: T3, human MSLN-hFc protein (Acro, Cat. No. …); assay: ELISA on coated antigen, antibody 0.01 nM
[21] = target: T3, human MSLN-hFc protein (Acro, Cat. No. …); assay: ELISA on coated antigen, antibody 1 nM
human MSLN-R3 protein [22] = target: T2, human MSLN-R3 protein; assay: ELISA on coated antigen, antibody 0.001 nM

T2 sequence (Q13421 495-606, form in doubt): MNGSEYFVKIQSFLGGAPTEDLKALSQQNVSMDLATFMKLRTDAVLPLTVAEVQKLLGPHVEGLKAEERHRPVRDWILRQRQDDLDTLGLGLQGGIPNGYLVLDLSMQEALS
T3 sequence (Q13421 other isoform, or with tags, fused parts or gaps limits assumed): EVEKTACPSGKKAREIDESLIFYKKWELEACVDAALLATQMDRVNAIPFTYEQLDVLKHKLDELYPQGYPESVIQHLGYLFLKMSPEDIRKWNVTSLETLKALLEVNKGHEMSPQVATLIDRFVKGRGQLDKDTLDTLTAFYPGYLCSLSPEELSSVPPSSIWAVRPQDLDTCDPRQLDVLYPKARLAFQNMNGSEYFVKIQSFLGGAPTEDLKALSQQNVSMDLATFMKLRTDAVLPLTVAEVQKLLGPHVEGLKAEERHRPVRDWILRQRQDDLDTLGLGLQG
T1 sequence (Q13421 other isoform, or with tags, fused parts or gaps): as the sequence (Q13421 other isoform, or with tags, fused parts or gaps limits assumed) above, with R14P counted along it

Row | Binder | OD450 (human MSLN-R3 protein [9]) [OD450] | OD450 (human MSLN-R3 protein [10]) [OD450] | OD450 [11] [OD450] | OD450 (human MSLN-R3 protein [12]) [OD450] | OD450 (human MSLN-R3 protein [13]) [OD450] | OD450 [14] [OD450] | OD450 (human MSLN-R3 protein [15]) [OD450] | OD450 (human MSLN-R3 protein [16]) [OD450] | OD450 [17] [OD450] | OD450 [18] [OD450] | OD450 [19] [OD450] | OD450 [20] [OD450] | OD450 [21] [OD450] | OD450 (human MSLN-R3 protein [22]) [OD450] | other results
1 | B1 |  |  |  |  |  |  |  |  |  |  |  |  |  |  | OD450 [1]: 2.94 OD; OD450 [2]: 2.79 OD; OD450 [3]: 0.07 OD; OD450 [4]: 2.8 OD; OD450 [5]: 0.06 OD; OD450 [6]: 0.1 OD; OD450 [7]: 1.31 OD; OD450 [8]: 0.18 OD
2 | B2 |  |  |  |  |  |  |  |  |  |  |  |  |  |  | OD450 [1]: 3.16 OD; OD450 [2]: 2.75 OD; OD450 [3]: 0.05 OD; OD450 [4]: 2.51 OD; OD450 [5]: 0.05 OD; OD450 [6]: 0.08 OD; OD450 [7]: 1.53 OD; OD450 [8]: 0.34 OD
3 | B3 |  |  |  |  |  |  |  |  |  |  |  |  |  |  | OD450 [1]: 3.22 OD; OD450 [2]: 2.73 OD; OD450 [3]: 0.06 OD; OD450 [4]: 2.55 OD; OD450 [5]: 0.05 OD; OD450 [6]: 0.12 OD; OD450 [7]: 1.88 OD; OD450 [8]: 0.49 OD
4 | B4 | 0.04 | 2.11 | 0.05 | 0.74 | 2.32 | 0.04 | 0.1 | 0.05 | 0.19 | 3.2 | 2.99 | 0.06 | 1.14 | 0.04 | 
5 | B5 | 0.05 | 2.23 | 0.04 | 1.18 | 2.1 | 0.04 | 0.16 | 0.05 | 0.3 | 3.05 | 2.99 | 0.06 | 1.74 | 0.04 | 
6 | B6 | 0.04 | 2.07 | 0.05 | 0.76 | 2.15 | 0.04 | 0.09 | 0.05 | 0.15 | 3.09 | 2.55 | 0.05 | 1.13 | 0.04 | 
7 | B7 | 0.05 | 2.41 | 0.05 | 1.1 | 2.43 | 0.05 | 0.16 | 0.05 | 0.27 | 3.28 | 2.91 | 0.06 | 1.69 | 0.04 | 
8 | B8 | 0.05 | 2.12 | 0.05 | 0.6 | 2.44 | 0.05 | 0.09 | 0.05 | 0.16 | 3.17 | 2.92 | 0.06 | 1.02 | 0.05 | 
9 | B9 | 0.04 | 1.85 | 0.05 | 0.77 | 1.86 | 0.05 | 0.11 | 0.05 | 0.19 | 3.26 | 2.78 | 0.06 | 1.24 | 0.04 | 
10 | B10 | 0.06 | 1.6 | 0.05 | 0.72 | 1.8 | 0.05 | 0.1 | 0.04 | 0.16 | 2.97 | 2.4 | 0.05 | 1.12 | 0.04 | 
11 | B11 | 0.04 | 1.68 | 0.04 | 0.39 | 1.96 | 0.17 | 0.07 | 0.04 | 0.22 | 2.97 | 2.48 | 0.05 | 0.83 | 0.04 | 
12 | B12 | 0.05 | 1.68 | 0.04 | 0.55 | 1.8 | 0.2 | 0.08 | 0.05 | 0.11 | 2.98 | 2.14 | 0.05 | 1.06 | 0.04 | 
